The text below walks through data of article PMC4725817 (Scientific Reports, 2016).

For assay [1], the target named is T1, EBOV glycoprotein lacking the transmembrane domain (Kikwit) (Zaire ebolavirus, Kikwit-95, UniProt P87666). Briefly: ELISA. Particulars: both partners purified. On the technique in general: ELISA stands for enzyme-linked immunosorbent assay.
Assay [2] has as its target T1, EBOV glycoprotein lacking the …. Briefly: cell-based or functional assay.

T1 sequence (P87666 33-650): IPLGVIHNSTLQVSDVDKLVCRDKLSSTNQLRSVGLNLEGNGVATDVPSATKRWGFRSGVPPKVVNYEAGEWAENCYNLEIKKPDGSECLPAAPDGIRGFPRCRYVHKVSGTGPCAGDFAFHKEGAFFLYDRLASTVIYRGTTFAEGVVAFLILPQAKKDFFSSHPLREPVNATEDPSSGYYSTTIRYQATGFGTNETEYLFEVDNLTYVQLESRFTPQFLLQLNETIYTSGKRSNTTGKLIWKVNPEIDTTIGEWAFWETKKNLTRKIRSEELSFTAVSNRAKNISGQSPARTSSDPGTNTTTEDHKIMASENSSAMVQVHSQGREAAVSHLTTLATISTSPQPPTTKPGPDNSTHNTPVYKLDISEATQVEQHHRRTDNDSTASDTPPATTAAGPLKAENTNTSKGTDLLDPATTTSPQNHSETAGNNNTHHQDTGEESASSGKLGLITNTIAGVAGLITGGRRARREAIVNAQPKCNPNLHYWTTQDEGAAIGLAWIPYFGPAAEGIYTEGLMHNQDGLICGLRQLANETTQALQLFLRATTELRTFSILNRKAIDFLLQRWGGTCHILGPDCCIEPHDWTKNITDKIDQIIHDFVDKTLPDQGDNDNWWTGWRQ

B1: KZ52 (human EBOV mAb, monospecific IgG1) (antibody, V domains shown)
VH: EVQLLESGGGLVKPGGSLRLSCAASGFTLINYRMNWVRQAPGKGLEWVSSISSSSSYIHYADSVKGRFTISRDNAENSLYLQMNSLRAEDTAVYYCVREGPRATGYSMADVFDIWGQGTMVTVSS
VL: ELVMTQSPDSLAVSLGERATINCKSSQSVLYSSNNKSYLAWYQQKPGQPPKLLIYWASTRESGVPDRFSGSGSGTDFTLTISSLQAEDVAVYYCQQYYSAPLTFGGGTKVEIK
notes: also called KZ52 IgG1; monospecific KZ52
Usually EC50 stands for the concentration at which the effect is half-maximal. A lower EC50 goes with a more potent agent. In assay [1], B1 gave an EC50 of 0.01 nM. Moreover, the “IC50 of neutralisation of VSV-GP_(EBOV), infection of Vero cells (eGFP)” value in assay [2] worked out at 2.7 nM.
